# In publication PMC8964682, “Structural and biochemical characterization of in vivo assembled Lactococcus lactis CRISPR-Csm complex” (Communications Biology, 2022):
# B1: Lactococcus lactis Csm2 with N-terminal His6-tag, subunit of the LlCsm complex (natural protein)
# chain: TELKIGNEKVNSTNFGDFAEKAIRGINHKPFVNSKGGEQKITTSKIRGILELVNKVYNRVINTNDVELSENILADIAYIKVKIAYESGREPVVKDFIQRTAFTAAITDVMNQRTRESFLLFARYVESLIAYFKFYGGKD
# notes: Csm2 of the plasmid-encoded (pKLM) Type III-A CRISPR-Cas system of Lactococcus lactis; The csm2 gene encoded the His6-tag in all variants of LlCsm (wild type and Csm1 D14N / Csm3 D30A); Removal of the tag is not mentioned; also called LlCsm2; not shown: His6, N-terminal, kept
# B2: Lactococcus lactis Csm3 Asp30Ala, subunit of the LlCsm (D14N)1(D30A)3 complex (natural protein)
# chain: MKLVIEGTIVLKTGMHIGGSSDFSAIGAVASPVVRDTLTRLPLIPGSSLKGKMRYLLAKELNNGILLNEPNNDQDEILRLFGSSEKDKIRRARLKFNDIKLSNLAELETFNVSSTEVKFENTINRKTAVANPRQIERVIAGSKFDFEIFYNLDDIKEVEKDFENIKQGFDLLEFDYLGGHGTRGSGRIAFENLSVITAVGNFEKINTLNEILGA
# notes: Csm3 of the plasmid-encoded (pKLM) Type III-A CRISPR-Cas system of Lactococcus lactis, with the RNase-site mutation D30A; Csm3.1 is the Csm3 copy closest to Csm4; There are four copies in CTR-43, NTR and apo, and three in CTR-32; also called Csm3.1; Csm3.2
# Columns and labels:
# [1] = target: the molecule itself; test: cryo-EM structure; co-purified LlCsm (Csm1 D14N, Csm3 D30A)-crRNA incubated with NTR at 1:2, 37 °C, 60 min, then SEC; 3.4 Å
# [2] = target: the molecule itself; test: cryo-EM structure; co-purified LlCsm (Csm1 D14N, Csm3 D30A)-crRNA incubated with CTR at 1:2, 37 °C, 60 min, then SEC; no ATP; two classes, CTR-43 (3.0 Å) and CTR-32 (3.3 Å)
protein,measurement,setting,value
B1,stoichiometry N,[1],3
same,stoichiometry N,[2],2
B2,stoichiometry N,[1],4
same,stoichiometry N,[2],3
